Test results as given in US20120028271A1.
Blank lines part the entries; values can stand above or below the molecule they belong to.

What was measured:
[1] = molecular target: proteasome of mammalian cell and human tissue extracts (detected through Rpt1, Rpn2, Rpn1 and 20S alpha subunits and chymotryptic activity) (human); experiment: GST pull-down from cell extracts, co-purified chymotryptic activity standardized to UbL-A, 14 measurements
[2] = molecular target: proteasome of mammalian cell and human tissue extracts (detected through Rpt1, Rpn2, Rpn1 and 20S alpha subunits and chymotryptic activity) (human); experiment: GST pull-down from cell extracts, co-purified chymotryptic activity, 5 measurements

Chain of proteasome of mammalian cell and human tissue extracts (detected through Rpt1, Rpn2, Rpn1 and 20S alpha subunits and chymotryptic activity) (human) (P35998 2-433, form in doubt, chain 1 of 2): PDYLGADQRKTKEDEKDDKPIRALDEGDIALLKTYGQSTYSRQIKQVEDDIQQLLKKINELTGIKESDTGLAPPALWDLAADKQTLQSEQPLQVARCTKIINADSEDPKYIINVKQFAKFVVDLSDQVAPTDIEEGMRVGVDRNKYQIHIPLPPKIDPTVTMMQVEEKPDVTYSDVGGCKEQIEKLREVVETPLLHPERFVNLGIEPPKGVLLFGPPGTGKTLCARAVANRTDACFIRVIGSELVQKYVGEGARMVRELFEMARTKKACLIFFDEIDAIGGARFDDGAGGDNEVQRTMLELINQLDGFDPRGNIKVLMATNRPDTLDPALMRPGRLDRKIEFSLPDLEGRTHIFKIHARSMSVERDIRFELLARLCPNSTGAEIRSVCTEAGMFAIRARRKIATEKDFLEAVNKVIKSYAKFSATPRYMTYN
Chain of proteasome of mammalian cell and human tissue extracts (detected through Rpt1, Rpn2, Rpn1 and 20S alpha subunits and chymotryptic activity) (human) (B8ZZH9 whole entry, form in doubt, chain 2 of 2, further chain): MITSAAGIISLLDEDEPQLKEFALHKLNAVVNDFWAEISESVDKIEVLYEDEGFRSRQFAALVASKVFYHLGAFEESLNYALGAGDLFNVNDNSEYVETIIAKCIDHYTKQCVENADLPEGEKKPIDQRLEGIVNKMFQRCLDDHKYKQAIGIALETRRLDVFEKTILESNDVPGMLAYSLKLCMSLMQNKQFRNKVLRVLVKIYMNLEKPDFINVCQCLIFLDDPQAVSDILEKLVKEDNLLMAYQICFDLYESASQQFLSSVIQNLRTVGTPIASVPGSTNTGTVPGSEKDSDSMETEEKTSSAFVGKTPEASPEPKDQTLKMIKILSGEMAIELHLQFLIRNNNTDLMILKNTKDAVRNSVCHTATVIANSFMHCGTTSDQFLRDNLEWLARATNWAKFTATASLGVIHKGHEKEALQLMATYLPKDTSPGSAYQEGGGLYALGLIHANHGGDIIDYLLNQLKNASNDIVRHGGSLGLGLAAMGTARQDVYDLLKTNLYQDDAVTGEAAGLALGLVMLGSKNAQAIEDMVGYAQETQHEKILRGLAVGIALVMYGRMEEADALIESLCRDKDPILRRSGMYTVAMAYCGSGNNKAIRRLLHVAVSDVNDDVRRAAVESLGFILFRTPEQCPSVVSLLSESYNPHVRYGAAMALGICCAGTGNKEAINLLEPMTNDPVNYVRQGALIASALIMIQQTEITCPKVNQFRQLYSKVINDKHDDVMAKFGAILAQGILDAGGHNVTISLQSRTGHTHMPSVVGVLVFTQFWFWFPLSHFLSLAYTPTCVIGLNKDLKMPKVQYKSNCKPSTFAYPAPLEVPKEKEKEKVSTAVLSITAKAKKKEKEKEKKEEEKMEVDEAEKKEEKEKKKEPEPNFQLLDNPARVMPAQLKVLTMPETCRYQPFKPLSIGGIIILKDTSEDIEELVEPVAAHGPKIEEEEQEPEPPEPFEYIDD

fold proteasome purified (chymotryptic activity) relative to UbL-A [1]: 2.94 fold
Molecule: GST-UbL-B (UbL domain of human hHR23B, residues 1-78) (from UniProt P54727 1-78)

fold increase of proteasome interaction / associated chymotryptic activity relative to UbL-A^1-79 [2]: 2.5 fold
B1: GST-UbL-A^1-78 (UbL domain of hHR23A ending in Val-Val-Val-Met-Val-Thr-Lys) (protein, not shown: a dimerising Fc or GST)
chain: MAVTITLKTLQQQTFKIRMEPDETVKVLKEKIEAEKGRDAFPVAGQKLIYAGKILSDDVPIRDYRIDEKNFVVVMVTK
